As a reminder, the stoichiometry N is the number of molecules, sites or subunits per partner or assembly.

This assay concerns the target T1, Kir2.1 tagged with mVenus and PAmCherry (human), P63252.
T1 chain: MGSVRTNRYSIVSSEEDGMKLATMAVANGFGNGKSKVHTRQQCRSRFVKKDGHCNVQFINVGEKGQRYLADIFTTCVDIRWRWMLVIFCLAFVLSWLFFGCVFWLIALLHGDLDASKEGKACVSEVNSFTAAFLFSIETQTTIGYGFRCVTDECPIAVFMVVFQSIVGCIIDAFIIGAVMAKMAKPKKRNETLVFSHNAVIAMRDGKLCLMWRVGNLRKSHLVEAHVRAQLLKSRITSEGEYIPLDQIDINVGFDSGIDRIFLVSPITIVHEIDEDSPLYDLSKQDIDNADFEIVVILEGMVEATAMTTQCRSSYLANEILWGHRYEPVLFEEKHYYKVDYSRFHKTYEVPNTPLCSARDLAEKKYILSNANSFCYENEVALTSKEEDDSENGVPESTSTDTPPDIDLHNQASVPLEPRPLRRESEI
Put plainly: native gel or EMSA; high-resolution clear native electrophoresis (hrCNE); lysate of transfected HEK293T cells in 0.1 M sodium phosphate with 0.5% digitonin or 20 mM DDM; 4-14% acrylamide gradient gel run at 4 °C; mVenus fluorescence scanned; VGLUTs and sialin with and without PNGaseF. Particulars: remark: other sources report otherwise. In general terms: In EMSA bound probe runs differently from free probe, usually more slowly.

B1: Kir2.1 tagged with mVenus and PAmCherry, P63252 1-427 (natural protein)
chain: T1 chain
On to B1, for which the stoichiometry N was found to be 4.

Source of the values: PMC9584609.
